The target in this assay is T1, IGF-1R expressed on MCF-7 cells (Homo sapiens, UniProt P08069).
T1 construct: wild type IGF-1R expressed on MCF-7 tumor cells; endogenous in cells; host or cells: MCF-7
Briefly: Flow cytometry binding to wild type IGF-1R on MCF-7 tumor cells. As for the experimental part: The ability of Fabs to bind to the wild type IGF-1R was determined by flowcytometry using MCF-7 tumor cell line.
MCF-7 cells (Human Breast Adenocarcinoma from NCI) were split 24 hours prior to the setup of the assay to obtain 70% confluent monolayer. Routinely, MCF-7 cell line was maintained within 20 passages. Cells were lifted with cell dissociation buffer (Gibco catalog #13151-014), counted, washed and adjusted to 1×10^6 cells/ml and one ml of cells were then added to each tube (12×75 mm tube Falcon catalog# 352054). Cells were pelleted and supernatant removed by centrifugation at 1200 rpm for 5 min and 100 μl of diluted antibodies were then added to the cell pellet. Purified Fabs were tested at a starting concentration of either 210 or 60 μg/ml with 1:3 dilutions in FACS buffer, down to 0.001 μg/ml. FACS buffer used throughout the assay was PBS (without Ca++/Mg++) containing 1% BSA (Sigma catalog# A-7906; Sigma-Aldrich Corp. (St. Louis, Mo., USA)) and 0.1% Sodium Azide (Sigma catalog #S2002). As a positive control IR3 a murine antibody (Ab-1; Calbiochem #GR11L) was used. Samples were allowed to incubate on ice for 1 hour and 15 minutes then were washed with 2 ml FACS buffer and centrifuged at 1200 rpm for 5 minutes at 4° C. The supernatant was aspirated and 100 μl of the secondary detection antibody was added to each corresponding tube in FACS buffer. Samples were then incubated for 30 minutes on ice, in the dark. Cells were washed as described above, then, re-suspended in […] FACS buffer per tube/sample.
Cells were stained for live cell determination with Propidium Iodide staining solution (PI for dead cell exclusion; BD Pharmingen catalog# 51-66211E or 556463; use at 1:500 final in FACS buffer). […]
Once samples have been run and geometric means determined, antibody concentration (X axis) vs. geometric mean (Y axis) was graphed to the log 10, using Graphpad Prism (Prism Graph) graphing program. […]
The binding activity of human antibodies to wild type IGF-1R expressed on tumor cells was determined by flow cytometry. […]

[1] abbreviates: murine monoclonal antibodies, read-out: Binding (EC50nM) Tumor MCF-7.

Where two headings read alike, the source gives them in different places.

B1: 20C8.3B8: murine anti-human IGF-1R monoclonal antibody from hybridoma; VH SEQ ID NO:43, VL SEQ ID NO:103 (antibody, V domains shown)
VH: DVQLQESGPDLVKPSQSLSLTCTVTGYSITSGYSWHWIRQFPGNKLEWMGYIHYSGGTNYNPSLKSRISITRDTSKNQFFLQLNSVTTEDTATYYCARSGYGYRSAYYFDYWGQGTTVTVSS
VL: DIVLTQSPASLAVSLGQRATISCRASKSVSTSAYSYMHWYQQKPGQPPKLLIYLASNLESGVPARFSGSGSGTDFTLNIHPVEEEDAATYYCQHSRELPYTFGGGTKLEIK
modifications: Antibody variable heavy chain sequence; Antibody variable light chain sequence
As for B1, the EC50 under setting [1] came out at 1.23 nM.

B2: 20D8.24B11: murine anti-human IGF-1R monoclonal antibody from hybridoma; VH SEQ ID NO:53, VL SEQ ID NO:103 (antibody, V domains shown)
VH: DVQLQESGPDLVKPSQSLSLTCTVTGYSITSGYSWHWIRQFPGNKLEWMGYIHYSGGTNYNPSLKSRISITRDTSKNQFFLQLNSVTTEDTATYYCARSGYGYRSAYYFDYWGQGTTLTVSS
VL: DIVLTQSPASLAVSLGQRATISCRASKSVSTSAYSYMHWYQQKPGQPPKLLIYLASNLESGVPARFSGSGSGTDFTLNIHPVEEEDAATYYCQHSRELPYTFGGGTKLEIK
modifications: Antibody variable heavy chain sequence; Antibody variable light chain sequence
As for B2, the EC50 under setting [1] is 1.3 nM.

B3: Fab M12-E01: human anti-human IGF-1R Fab from phage display library; VH SEQ ID NO:4, VL SEQ ID NO:68 (antibody, V domains shown)
VH: EVQLLESGGGLVQPGGSLRLSCAASGFTFSPYSMLWVRQAPGKGLEWVSSIGSSGGSTRYADSVKGRFTISRDNSKNTLYLQMNSLRAEDTAMYYCARVRGILHYDILIGRNLYYYYMDVWGKGTTVTVSS
VL: QYELTQPPSVSEAPRQRVTISCSGSSSNIGNNAINWYQQLPGKPPKLLIYYDDLLPSGVSDRFSGSKSGTSGSLAISGLQSEDEADYYCAAWDDNLNGVIFGGGTKLTVL
modifications: Antibody variable heavy chain sequence; Antibody variable light chain sequence
B3: the EC50 (purified Fabs, read-out: FACS Binding MCF-7 EC50nM) is 7.4 nM.

For the origin of these results see patent US20090291088A1, “THERAPEUTIC COMBINATIONS OF ANTI-IGF-1R ANTIBODIES AND OTHER COMPOUNDS” (Biogen Idec MA Inc., priority 2008, published 2009).
